Data: US20200262913A1 (ZymoGenetics, published 2020)

T1: recombinant human IL-31 (as used in the NHK STAT3 phosphorylation assay of Example 5) (human, UniProt Q6EBC2 24-164, limits assumed)
T1 sequence: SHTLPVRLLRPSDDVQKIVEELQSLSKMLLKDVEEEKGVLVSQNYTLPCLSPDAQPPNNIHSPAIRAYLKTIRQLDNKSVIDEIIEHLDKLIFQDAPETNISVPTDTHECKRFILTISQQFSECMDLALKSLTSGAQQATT

T2: recombinant human IL-31 (hIL-31, BHK produced, A1277F, zcytor17lig CEE) (human, UniProt Q6EBC2 24-164)
T2 construct: also called recombinant hIL-31
T2 sequence: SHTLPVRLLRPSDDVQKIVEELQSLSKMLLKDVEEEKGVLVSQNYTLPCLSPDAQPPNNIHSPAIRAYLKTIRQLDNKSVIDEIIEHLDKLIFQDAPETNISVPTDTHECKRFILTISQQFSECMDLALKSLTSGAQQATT


Experiments:
[1] = target: T1, recombinant human IL-31 (as used in the …); assay: cell-based or functional assay
[2] = target: recombinant human IL-31 (C108S), produced in E. coli by ZymoGenetics, MW 18 kDa (human), Q6EBC2; assay: cell-based or functional assay
[3] = target: T2, recombinant human IL-31 (hIL-31, BHK …); assay: SPR (Biacore), against parent 292.12.3.1
Experimental: (§1) The purified monoclonal antibodies were immobilized in individual flow cells on a CM5 type sensor chip. Immobilizations were performed using a standard amine coupling procedure, aiming for an immobilization level of 500 Resonance Units (RU). The antibodies were diluted to 1-5 ug/ml in 10 mM NaAc pH 4.5.
(§2) HPS-EP pH 7.4 (10 mM HEPES, 150 mM NaCl, 3 mM EDTA and 0.005% Polysorbat P20) was used as running buffer, and diluents for the recombinant hIL-31 (hIL-31, BHK produced, A1277F, zcytor17lig CEE). The hIL-31 was tested in a 3-fold dilution series from 333.3 nM to 1.4 nM. Association (injection) was 4 min., followed by a 20 min. dissociation (wash) period. Flow rate was 50 ul/min. Experiments were performed at 25OC. Regeneration of the surface was accomplished by injection of 30 sec. pulse of 10 mM Glycin-HCl pH 1.8 or 1M formic acid, at a 30 ul/min flow rate. Detection in all flow cells simultaneously. Flow cell #1 contained no immobilized antibody, and was used for subtraction of background and bulk.
(§3) The kinetic parameters were calculated by global fitting of the data using a 1:1 langmuir binding model. Data was inspected for mass-transport limitations prior to calculation of the kinetic parameters. In some experiments the Rmax was fitted locally, and the RI constant at 0.

[4] = target: T2, recombinant human IL-31 (hIL-31, BHK …); assay: SPR (Biacore), mAb amine-coupled to CM5 chip, hIL-31 injected
Experimental: as §1, §2, §3

Row | IC50, IL-31-induced STAT3 phosphorylation in NHK, Exp 6 [1] [nM] | IC50, IL-31-induced STAT3 phosphorylation in NHK, Exp 7 [1] [nM] | Average Fold loss in potency relative to 292.12.3.1, BAF-3(hIL-31R) proliferation assay [2] [fold] | Average Potency (IC50), inhibition of hIL-31-induced proliferation of BAF-3(hIL-31R) cells [2] [nM] | Relative potency loss (KD) [3] | Kd [4] [nM] | koff [4] [s⁻¹] | kon [4] [M⁻¹ s⁻¹] | IC50, IL-31-induced STAT3 phosphorylation in NHK, Exp 8 [1] [nM] | IC50, IL-31-induced STAT3 phosphorylation in NHK, Exp 9 [1] [nM] | Relative potency loss (kd) [3] | IC50, IL-31-induced STAT3 phosphorylation in NHK, Exp 10 [1] [nM] | Binder
1 | 3.84 | 6.22 | 9.8 | 10.6 | ~0.5 x to parent | 1.2 | 7.5e-05 | 61000 | – | – | – | – | humanized 292.12.3.1 construct clone 16 (12VH1-gly + HC(fback) + LC(G66R, G68E, D70Q, T72S)) (antibody, human IgG4, V domains shown) VH: QVQLVQSGAEVKKPGASVKVSCKASGYTLTRYWMQWVRQAPGQGLEWMGAIYPGDGDTRYSQKFQGRVTLTADKSISTAYMELSSLRSEDTAVYYCAFPDGYYAAPYGMDYWGQGTLVTVSS VL: DIQMTQSPSSLSASVGDRVTITCRASGNIHNYLAWYQQKPGKVPKLLIYNAKTLADGVPSRFSGSRSETQFSLTISSLQPEDVATYYCQHFWSTPWTFGQGTKVEIKR
2 | – | – | 8.3 | 12.9 | ~0.5 x to parent | 0.99 | 8.98e-05 | 90000 | 4.49 | 5.37 | ~1.5 x to parent | – | humanized 292.12.3.1 construct clone 29 (12VH1-gly + HC(F29L, T73K, R94F) + LC(F71Y)) (antibody, human IgG4, V domains shown) VH: QVQLVQSGAEVKKPGASVKVSCKASGYTLTRYWMQWVRQAPGQGLEWMGAIYPGDGDTRYSQKFQGRVTMTRDKSISTVYMELSSLRSEDTAVYYCAFPDGYYAAPYGMDYWGQGTLVTVSS VL: DIQMTQSPSSLSASVGDRVTITCRASGNIHNYLAWYQQKPGKVPKLLIYNAKTLADGVPSRFSGSGSGTDYTLTISSLQPEDVATYYCQHFWSTPWTFGQGTKVEIKR
3 | – | – | 14.7 | 18.9 | ~0.3 x to parent | 0.64 | 5.9e-05 | 93000 | 11.5 | 6.43 | – | – | humanized 292.12.3.1 construct clone 32 (12VH1-gly + HC(F29L, R71A, V78A, R94F) + LC(F71Y)) (antibody, human IgG4, V domains shown) VH: QVQLVQSGAEVKKPGASVKVSCKASGYTLTRYWMQWVRQAPGQGLEWMGAIYPGDGDTRYSQKFQGRVTMTADTSISTAYMELSSLRSEDTAVYYCAFPDGYYAAPYGMDYWGQGTLVTVSS VL: DIQMTQSPSSLSASVGDRVTITCRASGNIHNYLAWYQQKPGKVPKLLIYNAKTLADGVPSRFSGSGSGTDYTLTISSLQPEDVATYYCQHFWSTPWTFGQGTKVEIKR
4 | – | – | 25.1 | 32.4 | ~0.4 x to parent | 0.77 | 7e-05 | 92000 | 11 | 7.82 | – | – | humanized 292.12.3.1 construct clone 31 (12VH1-gly + HC(F29L, M69L, R71A, V78A, R94F) + LC(F71Y)) (antibody, human IgG4, V domains shown) VH: QVQLVQSGAEVKKPGASVKVSCKASGYTLTRYWMQWVRQAPGQGLEWMGAIYPGDGDTRYSQKFQGRVTLTADTSISTAYMELSSLRSEDTAVYYCAFPDGYYAAPYGMDYWGQGTLVTVSS VL: DIQMTQSPSSLSASVGDRVTITCRASGNIHNYLAWYQQKPGKVPKLLIYNAKTLADGVPSRFSGSGSGTDYTLTISSLQPEDVATYYCQHFWSTPWTFGQGTKVEIKR
5 | – | – | 18.7 | 29.1 | ~0.5 x to parent | 0.8 | 7.9e-05 | 98000 | 3.42 | 9.59 | ~1.3 x to parent | – | humanized 292.12.3.1 construct clone 27 (12VH1-gly + HC(F29L, M69L, R94F) + LC(F71Y)) (antibody, human IgG4, V domains shown) VH: QVQLVQSGAEVKKPGASVKVSCKASGYTLTRYWMQWVRQAPGQGLEWMGAIYPGDGDTRYSQKFQGRVTLTRDTSISTVYMELSSLRSEDTAVYYCAFPDGYYAAPYGMDYWGQGTLVTVSS VL: DIQMTQSPSSLSASVGDRVTITCRASGNIHNYLAWYQQKPGKVPKLLIYNAKTLADGVPSRFSGSGSGTDYTLTISSLQPEDVATYYCQHFWSTPWTFGQGTKVEIKR
6 | 2.6 | 2.68 | 5.9 | 8.1 | ~0.5 x to parent | 1.13 | 6.2e-05 | 55000 | – | – | – | – | humanized 292.12.3.1 construct clone 18 (12VH1-gly + HC(fback) + LC(G66R, G68E, F71Y)) (antibody, human IgG4, V domains shown) VH: QVQLVQSGAEVKKPGASVKVSCKASGYTLTRYWMQWVRQAPGQGLEWMGAIYPGDGDTRYSQKFQGRVTLTADKSISTAYMELSSLRSEDTAVYYCAFPDGYYAAPYGMDYWGQGTLVTVSS VL: DIQMTQSPSSLSASVGDRVTITCRASGNIHNYLAWYQQKPGKVPKLLIYNAKTLADGVPSRFSGSRSETDYTLTISSLQPEDVATYYCQHFWSTPWTFGQGTKVEIKR
7 | – | – | 16.5 | 26.3 | ~0.5 x to parent | 0.85 | 7.2e-05 | 85000 | 5.85 | 7.28 | – | – | humanized 292.12.3.1 construct clone 25 (12VH1-gly + HC(F29L, R94F) + LC(F71Y)) (antibody, human IgG4, V domains shown) VH: QVQLVQSGAEVKKPGASVKVSCKASGYTLTRYWMQWVRQAPGQGLEWMGAIYPGDGDTRYSQKFQGRVTMTRDTSISTVYMELSSLRSEDTAVYYCAFPDGYYAAPYGMDYWGQGTLVTVSS VL: DIQMTQSPSSLSASVGDRVTITCRASGNIHNYLAWYQQKPGKVPKLLIYNAKTLADGVPSRFSGSGSGTDYTLTISSLQPEDVATYYCQHFWSTPWTFGQGTKVEIKR
8 | – | – | 37.1 | 57.8 | ~0.5 x to parent | 1.1 | 9e-05 | 78000 | 14.8 | 8.71 | ~1.5 x to parent | – | humanized 292.12.3.1 construct clone 30 (12VH1-gly + HC(F29L, V78A, R94F) + LC(F71Y)) (antibody, human IgG4, V domains shown) VH: QVQLVQSGAEVKKPGASVKVSCKASGYTLTRYWMQWVRQAPGQGLEWMGAIYPGDGDTRYSQKFQGRVTMTRDTSISTAYMELSSLRSEDTAVYYCAFPDGYYAAPYGMDYWGQGTLVTVSS VL: DIQMTQSPSSLSASVGDRVTITCRASGNIHNYLAWYQQKPGKVPKLLIYNAKTLADGVPSRFSGSGSGTDYTLTISSLQPEDVATYYCQHFWSTPWTFGQGTKVEIKR
9 | – | – | 2.3 | 3.1 | ~0.6 x to parent | 1.3 | 6.8e-05 | 52000 | 4.08 | 5.68 | – | 13.6 | humanized 292.12.3.1 construct clone 33 (12VH1(germ)-gly + fback) (antibody, human IgG4, V domains shown) VH: QVQLVQSGAEVKKPGASVKVSCKASGYTLTRYWMQWVRQAPGQGLEWMGAIYPGDGDTRYSQKFQGRVTLTADKSTSTAYMELSSLRSEDTAVYYCAFPDGYYAAPYGMDYWGQGTLVTVSS VL: DIQMTQSPSSLSASVGDRVTITCRASGNIHNYLAWYQQKPGKVPKLLIYNAKTLADGVPSRFSGSRSETQYSLTISSLQPEDVATYYCQHFWSTPWTFGQGTKVEIKR
10 | 6.65 | 5.29 | 5.2 | 5.9 | ~0.4 x to parent | 0.9 | 6.5e-05 | 70000 | – | – | – | – | humanized 292.12.3.1 construct clone 17 (12VH1-gly + HC(fback) + LC(D70Q, F71Y, T72S)) (antibody, human IgG4, V domains shown) VH: QVQLVQSGAEVKKPGASVKVSCKASGYTLTRYWMQWVRQAPGQGLEWMGAIYPGDGDTRYSQKFQGRVTLTADKSISTAYMELSSLRSEDTAVYYCAFPDGYYAAPYGMDYWGQGTLVTVSS VL: DIQMTQSPSSLSASVGDRVTITCRASGNIHNYLAWYQQKPGKVPKLLIYNAKTLADGVPSRFSGSGSGTQYSLTISSLQPEDVATYYCQHFWSTPWTFGQGTKVEIKR
11 | – | – | 17.1 | 26.4 | ~0.25 x to parent | 0.46 | 5.6e-05 | 120000 | 10.5 | 5.95 | – | – | humanized 292.12.3.1 construct clone 28 (12VH1-gly + HC(F29L, R71A, R94F) + LC(F71Y)) (antibody, human IgG4, V domains shown) VH: QVQLVQSGAEVKKPGASVKVSCKASGYTLTRYWMQWVRQAPGQGLEWMGAIYPGDGDTRYSQKFQGRVTMTADTSISTVYMELSSLRSEDTAVYYCAFPDGYYAAPYGMDYWGQGTLVTVSS VL: DIQMTQSPSSLSASVGDRVTITCRASGNIHNYLAWYQQKPGKVPKLLIYNAKTLADGVPSRFSGSGSGTDYTLTISSLQPEDVATYYCQHFWSTPWTFGQGTKVEIKR
